Reference: PMC6021343

Molecular target: Transferrin receptor 1 (human (endogenous in HeLa)) (UniProt P02786)
Sequence (P02786 whole entry): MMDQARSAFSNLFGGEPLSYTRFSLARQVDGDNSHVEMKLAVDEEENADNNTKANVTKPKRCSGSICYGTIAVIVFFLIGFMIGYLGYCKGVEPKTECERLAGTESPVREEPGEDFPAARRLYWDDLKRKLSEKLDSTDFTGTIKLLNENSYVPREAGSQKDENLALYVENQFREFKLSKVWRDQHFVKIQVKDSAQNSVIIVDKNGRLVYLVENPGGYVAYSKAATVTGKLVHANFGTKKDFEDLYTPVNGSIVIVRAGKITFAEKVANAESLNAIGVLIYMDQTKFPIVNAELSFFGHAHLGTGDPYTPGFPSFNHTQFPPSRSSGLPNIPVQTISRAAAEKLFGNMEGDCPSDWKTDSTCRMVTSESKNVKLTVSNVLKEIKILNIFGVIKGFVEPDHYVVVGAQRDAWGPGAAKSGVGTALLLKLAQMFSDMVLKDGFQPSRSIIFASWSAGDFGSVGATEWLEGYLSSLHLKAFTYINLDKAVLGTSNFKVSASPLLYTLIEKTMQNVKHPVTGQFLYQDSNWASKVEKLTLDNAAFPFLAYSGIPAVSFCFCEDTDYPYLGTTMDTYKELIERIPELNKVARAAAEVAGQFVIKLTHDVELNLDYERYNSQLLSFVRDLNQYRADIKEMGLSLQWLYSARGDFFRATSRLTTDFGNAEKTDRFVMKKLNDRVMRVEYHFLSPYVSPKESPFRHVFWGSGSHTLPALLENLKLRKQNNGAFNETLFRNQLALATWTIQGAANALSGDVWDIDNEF

human H-ferritin loaded with about 350 iron ions per cage, sequence (P02794 whole entry): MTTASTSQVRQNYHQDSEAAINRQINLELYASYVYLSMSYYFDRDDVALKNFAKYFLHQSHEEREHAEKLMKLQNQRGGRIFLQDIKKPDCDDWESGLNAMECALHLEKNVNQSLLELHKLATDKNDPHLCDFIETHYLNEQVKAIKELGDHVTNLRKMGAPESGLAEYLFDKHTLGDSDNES

## human H-ferritin loaded with about 350 iron ions per cage (from UniProt P02794 1-183) (natural protein)
  iron uptake by HeLa cells (ICP-MS of lysates) after 5 h with H-350 1 μM: decrease of uptake when 20 μM Holo-transferrin was added to the medium: 50%
